Assay [1] concerns the target T1, WT G-CSFR(Ig-CRH), purified, tag cleaved (human, UniProt Q99062 26-331).
T1 construct: also called G-CSFRWT; wild type G-CSFR(Ig-CRH)
T1 chain: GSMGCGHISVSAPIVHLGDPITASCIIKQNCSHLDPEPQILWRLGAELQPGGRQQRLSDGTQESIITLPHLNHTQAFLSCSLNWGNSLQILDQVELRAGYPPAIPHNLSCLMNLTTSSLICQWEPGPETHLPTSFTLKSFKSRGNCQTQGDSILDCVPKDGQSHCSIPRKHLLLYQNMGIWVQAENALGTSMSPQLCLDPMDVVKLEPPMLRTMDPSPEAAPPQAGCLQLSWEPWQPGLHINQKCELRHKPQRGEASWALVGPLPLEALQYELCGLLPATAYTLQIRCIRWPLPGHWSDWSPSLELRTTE
Nature of the assay: SPR, WT G-CSFR(Ig-CRH) amine-coupled, G-CSFE injected, single-cycle kinetics. As to the method: The SPR binding assays were carried out on a Biacore T200 instrument (GE Healthcare, Mississauga, ON, Canada) with PBS-T (PBS+0.05% (v/v) Tween 20) running buffer at a temperature of 25° C. CM5 Series S sensor chip, Biacore amine coupling kit (NHS, EDC and 1 M ethanolamine), and 10 mM sodium acetate buffers were all purchased from GE Healthcare. PBS running buffer with 0.05% Tween20 (PBS-T) was purchased from Teknova Inc. (Hollister, CA). Designs were assessed in three different immobilization orientations.
To assess binding affinity of G-CSFE to G-CSFRWT, recombinant G-CSFRWT purified as described in Example 5 was captured as described above in this Example. Using single-cycle kinetics, six concentrations of a two-fold dilution series of each G-CSFE mutant starting at […] with a blank buffer control were sequentially injected as described above. The same sample titration was also performed on a reference cell with no variants captured. The G-CSFRWT surface was regenerated as described above.

Assay [2] deals with T2, WT G-CSF, purified from insect cells, tag cleaved (human, UniProt P09919 31-206).
T2 construct: protein of the SPR; also called G-CSFWT; wild type G-CSF
T2 sequence: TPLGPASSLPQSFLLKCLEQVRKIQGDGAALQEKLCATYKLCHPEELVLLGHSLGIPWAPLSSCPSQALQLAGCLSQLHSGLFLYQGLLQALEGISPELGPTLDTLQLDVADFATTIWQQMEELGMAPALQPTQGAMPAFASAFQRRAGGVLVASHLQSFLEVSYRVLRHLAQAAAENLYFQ
Nature of the assay: SPR (Biacore T200), single-cycle kinetics.

The target of assay [3] is T2, WT G-CSF, purified from insect cells, …. Briefly: SPR, single-cycle kinetics.

B1: design 9 G-CSFE, tag cleaved (ligand)
chain: TPLGPASSLPQSFLLKCLEQVRKIQGDGAALQEKLCATYKLCHPEELVLLGHSLGIPWAPLSSCPSQALQLAGCLSQLHSGLFLYQGLLQALEGISPELGPTLRTLQKDVARFATTIWRQMKELGMAPALQPTQGAMPAFASAFQRRAGGVLVASHLQSFLEVSYRVLRHLAQAAAENLYFQ
notes: also called design 9 G-CSFE mutant
Consider B1, for which the “KD fold change (against WT:WT)” value in assay [1] was found to be 79 fold.

B2: design 300 G-CSFR(Ig-CRH)E, tag cleaved (receptor)
chain: SMGCGHISVSAPIVHLGDPITASCIIKQNCSHLDPEPQILWRLGAELQPGGRQQRLSDGTQESIITLPHLNHTQAKLSCSLNWGNSLQILDKVELRAGYPPAIPHNLSCLMNLTTSSLICQWEPGPETHLPTSFTLKSFKSRGNCQTQGDSILDCVPKDGQSHCSIPDKHLLLYQNMGIWVQAENALGTSMSPQLCLDPMDVVKLEPPMLRTMDPSPEAAPPQAGCLQLSWEPWQPGLHINQKCELRHKPQRGEASWALVGPLPLEALQYELCGLLPATAYTLQIRCIRWPLPGHWSDWSPSLELRTTE
Regarding B2, the binding result in assay [2] was “no binding”.

B3: design 117 G-CSFE, tag cleaved (ligand)
chain: TPLGPASSLPQSFLLKCLEQVRKIQGDGAALQEKLCATYKLCHPERLVLLGHSLGIPWAPLSSCPSQALQLAGCLSQLHSGLFLYQGLLQALEGISPELGPTLDTLQLDVADFATTIWQQMRRLGMAPALQPTQGAMPAFASAFQRRAGGVLVASHLQSFLEVSYRVLRHLAQAAAENLYFQ
notes: also called design 117 G-CSFE mutant
Consider B3, for which the “KD fold change (against WT:WT)” value in assay [1] stood at 3.4 fold.

B4: design 304 G-CSFR(Ig-CRH)E, tag cleaved (receptor)
chain: SMGCGHISVSAPIVHLGDPITASCIIKQNCSHLDPEPQILWELGAELQPGGRQQRLSDGTQESIITLPHLNHTQAFLSCSLNWGNSLQILDQVKLRAGYPPAIPHNLSCLMNLTTSSLICQWEPGPETHLPTSFTLKSFKSRGNCQTQGDSILDCVPKDGQSHCSIPDKHLLLYQNMGIWVQAENALGTSMSPQLCLDPMDVVKLEPPMLRTMDPSPEAAPPQAGCLQLSWEPWQPGLHINQKCELRHKPQRGEASWALVGPLPLEALQYELCGLLPATAYTLQIRCIRWPLPGHWSDWSPSLELRTTE
B4: the binding result in assay [2] is “no binding”.

B5: design 134 G-CSFR(Ig-CRH)E, tag cleaved (receptor)
chain: SMGCGHISVSAPIVHLGDPITASCIIKQNCSHLDPEPQILWELGAELQPGGRQQRLSDGTQESIITLPHLNHTQAFLSCSLNWGNSLQILDQVELRAGYPPAIPHNLSCLMNLTTSSLICQWEPGPETHLPTSFTLKSFKSEGNCQTQGDSILDCVPKDGQSHCSIPDKHLLLYQNMGIWVQAENALGTSMSPQLCLDPMDVVKLEPPMLRTMDPSPEAAPPQAGCLQLSWEPWQPGLHINQKCELRHKPQRGEASWALVGPLPLEALQYELCGLLPATAYTLQIRCIRWPLPGHWSDWSPSLELRTTE
notes: also called design 137 G-CSFR(Ig-CRH)E
For B5, the binding result in assay [2] is “no binding”.

B6: design 401 G-CSFR(Ig-CRH)E, tag cleaved (receptor)
chain: SMGCGHISVSAPIVHLGDPITASCIIKQNCSHLDPEPQILWELGAELQPGGRQQRLSDGTQESIITLPHLNHTQAFLSCSLNWGNSLQILDQVELRAGYPPAIPHNLSCLMNLTTSSLICQWEPGPETHLPTSFTLKSFKSRGNCQTQGDSILDCVPKDGQSHCSIPDKHLLLYQNMGIWVQAENALGTSMSPQLCLDPMDVVKLEPPMLRTMDPSPEAAPPQAGCLQLSWEPWQPGLHINQKCELRHKPQRGEASWALVGPLPLEALQYELCGLLPATAYTLQIRCIDWPLPGHWSDWSPSLELRTTE
In the case of B6, the binding result in assay [3] is recorded as “no binding”.

B7: design 130 G-CSFR(Ig-CRH)E, tag cleaved (receptor)
chain: SMGCGHISVSAPIVHLGDPITASCIIKQNCSHLDPEPQILWELGAELQPGGRQQRLSDGTQESIITLPHLNHTQAFLSCSLNWGNSLQILDQVELRAGYPPAIPHNLSCLMNLTTSSLICQWEPGPETHLPTSFTLKSFKSRGNCQTQGDSILDCVPKDGQSHCSIPDKHLLLYQNMGIWVQAENALGTSMSPQLCLDPMDVVKLEPPMLRTMDPSPEAAPPQAGCLQLSWEPWQPGLHINQKCELRHKPQRGEASWALVGPLPLEALQYELCGLLPATAYTLQIRCIRWPLPGHWSDWSPSLELRTTE
notes: also called 130 ECD (Ig-CRH)
For the molecule B7, the binding result in assay [3] is reported as “no binding”.

B8: design 307 G-CSFR(Ig-CRH)E, tag cleaved (receptor)
chain: SMGCGHISVSAPIVHLGDPITASCIIKQNCSHLDPEPQILWELGAELQPGGRQQRLSDGTQESIITLPHLNHTQAFLSCSLNWGNSLQILDQVELRAGYPPAIPHNLSCLMNLTTSSLICQWEPGPETHLPTSFTLKSFKSRGNCQTQGDSILDCVPKDGQSHCSIPRKHLLLYQNMGIWVQAENALGTSMSPQLCLKPMKVVKLEPPMLRTMDPSPEAAPPQAGCLQLSWEPWQPGLHINQKCELRHKPQRGEASWALVGPLPLEALQYELCGLLPATAYTLQIRCIEWPLPGHWSDWSPSLELRTTE
Consider B8, for which the binding result in assay [2] is reported as “no binding”.

B9: design 402 G-CSFR(Ig-CRH)E, tag cleaved (receptor)
chain: SMGCGHISVSAPIVHLGDPITASCIIKQNCSHLDPEPQILWELGAELQPGGRQQRLSDGTQESIITLPHLNHTQAFLSCSLNWGNSLQILDQVELRAGYPPAIPHNLSCLMNLTTSSLICQWEPGPETHLPTSFTLKSFKSRGNCQTQGDSILDCVPKDGQSHCSIPEKHLLLYENMGIWVQAENALGTSMSPQLCLDPMDVVKLEPPMLRTMDPSPEAAPPQAGCLQLSWEPWQPGLHINQKCELRHKPQRGEASWALVGPLPLEALQYELCGLLPATAYTLQIRCIEWPLPGHWSDWSPSLELRTTE
B9: the binding result in assay [3] was “no binding”.

B10: design 303 G-CSFR(Ig-CRH)E, tag cleaved (receptor)
chain: SMGCGHISVSAPIVHLGDPITASCIIKQNCSHLDPEPQILWRLGAELQPGGRQQRLSDGTQESIITLPHLNHTQAFLSCSLNWGNSLQILDQVKLRAGYPPAIPHNLSCLMNLTTSSLICQWEPGPETHLPTSFTLKSFKSRGNCQTQGDSILDCVPKDGQSHCSIPDKHLLLYQNMGIWVQAENALGTSMSPQLCLDPMDVVKLEPPMLRTMDPSPEAAPPQAGCLQLSWEPWQPGLHINQKCELRHKPQRGEASWALVGPLPLEALQYELCGLLPATAYTLQIRCIRWPLPGHWSDWSPSLELRTTE
In the case of B10, in assay [2], the binding result is “no binding”.

The values are drawn from patent publication US20240254182A1 (PROVINCIAL HEALTH SERVICES AUTHORITY, published 2024).
